The target of data set [1] is T1, TA_2799 (Pseudomonas putida, UniProt Q88J50).
T1 construct: gene PP_2799; pET43.1b, 6xHis tag, expressed in E. coli BL21 (DE3), Ni-NTA; homodimer; catalytic K286
As to the kind of experiment: X-ray crystal structure, […] Å. It is filed as binding. The note with it: covalent; internal aldimine with catalytic K286.

Data set [2] has as its system C[C@H](N)c1ccccc1. As to the kind of experiment: purified protein. It is filed as biochemical, Pseudomonas putida. The conditions noted are these: 20 mM pyruvate, 2 mM PLP, 50 mM HEPES pH 8.0, 30 °C, (S)-MBA 0-5 mM.

What is called Km is the substrate concentration at which the rate is half of its maximum. In general, Vmax refers to the rate approached at saturating substrate. Broadly, the kcat is the number of substrate molecules converted per active site and unit of time at saturation. Usually kcat/Km stands for the turnover number divided by the Michaelis constant.

`Cc1ncc(COP(=O)(O)O)c(C=O)c1O` [PLP]: the “X-ray crystal structure, 1.76 Å” value in data set [1] was “covalently bound internal aldimine form of the PLP bound to the catalytic K286 residue”.

With TA_2799 (Pseudomonas putida KT2440), in data set [2], the Km came out at 6459 ± 621 µM, the Vmax amounted to 0.104 µmol/min/mg, the kcat stood at 0.072 ± 0.00465 s⁻¹ and the kcat/Km came out at 11.1 M⁻¹ s⁻¹.

Take “TA_2799 (Pseudomonas putida KT2440; C324Y/L322F)”: in data set [2], the Km turned out to be 1188 ± 122 µM and the kcat stood at 0.02302 ± 0.000817 s⁻¹.

“TA_2799 (Pseudomonas putida KT2440; L322F)”: in data set [2], the Km was determined as 1068 ± 566 µM, the Vmax is 0.042 µmol/min/mg, the kcat amounted to 0.0296 ± 0.0006 s⁻¹ and the kcat/Km is 27.7 M⁻¹ s⁻¹.

Turning to TA_5182 (Pseudomonas putida KT2440), in data set [2], the Km was determined as 1089 ± 117 µM, the Vmax was 0.007 µmol/min/mg, the kcat stood at 0.0049 ± 0.000117 s⁻¹ and the kcat/Km came out at 4.48 M⁻¹ s⁻¹.

On to “TA_5182 (Pseudomonas putida KT2440; G119N)”, for which, in data set [2], the Km is 347 ± 24 µM, the Vmax amounted to 0.003 µmol/min/mg, the kcat worked out at 0.00245 ± 3.33e-05 s⁻¹ and the kcat/Km amounted to 7.05 M⁻¹ s⁻¹.
